T1: human Angiopoietin-1 (human, UniProt Q15389 20-498, limits assumed)
T1 construct: Bought recombinant protein (R&D Systems 293-AN-025/CF) or supernatant of transfected 293F cells; also called Ang-1; recombinant Ang-1
T1 sequence: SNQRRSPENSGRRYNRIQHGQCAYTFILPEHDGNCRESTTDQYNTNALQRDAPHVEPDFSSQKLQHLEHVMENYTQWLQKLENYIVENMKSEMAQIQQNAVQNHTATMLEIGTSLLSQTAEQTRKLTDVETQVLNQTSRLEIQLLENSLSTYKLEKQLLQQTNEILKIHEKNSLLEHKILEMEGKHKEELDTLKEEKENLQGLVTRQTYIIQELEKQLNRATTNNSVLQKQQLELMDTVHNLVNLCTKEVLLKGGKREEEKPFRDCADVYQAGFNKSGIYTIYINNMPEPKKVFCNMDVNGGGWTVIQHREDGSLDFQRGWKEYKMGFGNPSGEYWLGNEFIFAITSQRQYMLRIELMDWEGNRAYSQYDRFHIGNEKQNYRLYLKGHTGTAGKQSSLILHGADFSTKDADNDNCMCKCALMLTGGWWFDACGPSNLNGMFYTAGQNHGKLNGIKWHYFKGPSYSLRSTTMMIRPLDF

T2: Mouse/Human Ang-2 StuI chimeric molecule (mouse; human, UniProt O35608 19-496)
T2 construct: also called M/H Stul 310-496
T2 chain: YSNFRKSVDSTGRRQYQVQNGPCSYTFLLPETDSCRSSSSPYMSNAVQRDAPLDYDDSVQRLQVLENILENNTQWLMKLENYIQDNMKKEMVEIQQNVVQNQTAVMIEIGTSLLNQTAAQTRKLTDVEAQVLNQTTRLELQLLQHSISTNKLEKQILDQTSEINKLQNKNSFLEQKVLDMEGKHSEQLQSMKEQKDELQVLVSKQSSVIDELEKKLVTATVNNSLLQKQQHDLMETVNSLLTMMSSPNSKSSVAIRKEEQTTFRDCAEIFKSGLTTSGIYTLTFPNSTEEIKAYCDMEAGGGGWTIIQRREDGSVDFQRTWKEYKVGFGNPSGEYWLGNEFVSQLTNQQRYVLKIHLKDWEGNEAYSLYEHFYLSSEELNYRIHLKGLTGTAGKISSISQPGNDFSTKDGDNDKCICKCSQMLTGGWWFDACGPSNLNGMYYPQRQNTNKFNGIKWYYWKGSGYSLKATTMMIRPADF

T3: mouse Angiopoietin-2 (mouse, UniProt O35608 19-496)
T3 construct: Used as conditioned medium of transfectants; also called mAng-2; mouse Ang-2
T3 sequence: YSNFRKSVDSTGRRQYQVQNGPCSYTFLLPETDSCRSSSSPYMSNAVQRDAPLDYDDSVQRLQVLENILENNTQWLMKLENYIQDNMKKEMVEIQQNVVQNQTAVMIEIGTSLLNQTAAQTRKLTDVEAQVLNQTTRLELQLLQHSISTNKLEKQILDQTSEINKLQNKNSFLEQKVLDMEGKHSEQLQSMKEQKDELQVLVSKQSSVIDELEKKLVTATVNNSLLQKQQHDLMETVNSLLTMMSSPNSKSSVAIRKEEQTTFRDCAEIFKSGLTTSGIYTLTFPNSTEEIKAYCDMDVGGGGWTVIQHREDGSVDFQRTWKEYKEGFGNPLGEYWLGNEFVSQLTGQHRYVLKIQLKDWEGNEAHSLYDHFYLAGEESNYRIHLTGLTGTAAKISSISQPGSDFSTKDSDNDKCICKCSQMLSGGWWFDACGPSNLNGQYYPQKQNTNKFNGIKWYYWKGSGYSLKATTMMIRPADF

T4: human Angiopoietin-2 (human, UniProt O15123 19-496)
T4 construct: Mostly bought recombinant protein (R&D Systems 623-AM/CF, 623-AN; biotinylated BT623) or supernatant of transfected 293F cells; also called Ang-2; rhAng-2
T4 sequence: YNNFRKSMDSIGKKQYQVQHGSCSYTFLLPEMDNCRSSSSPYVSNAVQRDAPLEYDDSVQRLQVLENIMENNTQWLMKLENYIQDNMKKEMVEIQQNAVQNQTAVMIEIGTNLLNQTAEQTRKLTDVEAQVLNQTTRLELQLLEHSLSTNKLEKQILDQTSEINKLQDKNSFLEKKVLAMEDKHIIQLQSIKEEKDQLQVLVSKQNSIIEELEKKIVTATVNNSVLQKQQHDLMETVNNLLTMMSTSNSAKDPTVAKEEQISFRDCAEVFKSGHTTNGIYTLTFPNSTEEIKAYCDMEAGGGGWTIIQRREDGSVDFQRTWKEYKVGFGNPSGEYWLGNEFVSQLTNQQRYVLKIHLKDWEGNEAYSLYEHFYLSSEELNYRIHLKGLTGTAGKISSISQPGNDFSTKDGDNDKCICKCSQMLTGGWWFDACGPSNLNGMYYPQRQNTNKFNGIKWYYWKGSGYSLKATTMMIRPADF


Legend:
[1] = molecular target: T1, human Angiopoietin-1; test: capture ELISA
Procedure: The binding of the top 27 human monoclonal antibodies was detected with a HRP-conjugated goat anti-human antibody, followed by colorimetric horseradish peroxidase substrate (Enhanced K-Blue TMB substrate Neogen Corporation). The absorbance of each well of the ELISA plates was measured at 450 nm on a microplate autoreader.

[2] = molecular target: T2, Mouse/Human Ang-2 StuI chimeric molecule; test: ELISA
[3] = molecular target: T3, mouse Angiopoietin-2; test: ELISA, recombinant mouse Ang-2
[4] = molecular target: T4, human Angiopoietin-2; test: Biacore, mAb captured
Procedure: (§1) The label-free surface plasmon resonance (SPR), or Biacore, was utilized to measure the antibody affinity to the antigen. For this purpose, a high-density goat anti-human antibody surface over a CM5 Biacore chip was prepared using routine amine coupling. All the purified mAbs were diluted to approximately 8 μg/ml in HBS-P running buffer containing 100 μg/ml BSA and 10 mg/mL carboxymethyldextran. Each mAb was captured on a separate surface using a 42-second contact time, and a 5-minute wash for stabilization of the mAb baseline.
(§2) Data were fit globally to a 1:1 interaction model to determine the binding kinetics.

[5] = molecular target: T4, human Angiopoietin-2; test: inhibition of rhAng-2 binding to its receptor
[6] = molecular target: T4, human Angiopoietin-2; test: Biacore; kd held constant (*)
Procedure: as §1, §2

Binder	binding result [1]	% of binding to human Ang-2 [2]	binding result [3]	Kd [4]	koff [4]	kon [4]	OD650 in inhibition assay [5]	koff [6]
mAb 5.86.1 (antibody, V domains shown, Human hybridoma IgG (XenoMouse); also called x5.86) VH: QVQLVQSGAEVKKPGASVKVSCKASGYTFTGYHMYWVRQAPGQGLEWLGWINPNSGGTNYAQKFQGRVTMTRDTSISTAYMELSRLRSDDTAVYYCVRDQGIAAAGPFDYWCQGTLVTVSS VL: DIRMTQSPSSLSASVGDRVTITCRASQRISTYLNWYQQKPGKAPKFLIYAASSLQSGVPSRFSGSGSGTDFTLTISSLQPEDFATYYCQQSYTTPFTFGPGTKVDIKR	no binding	100%	no binding	0.744 nM	0.00011 s⁻¹	150000 M⁻¹ s⁻¹	0.0419 OD650	
mAb 5.52.1 (antibody, V domains shown, Human hybridoma IgG (XenoMouse); the line 5.52 has entries of its own (347, 349; light chain L2) that differ from the clone 5.52.1 (L5); also called x5.52) VH: QVQLVESGGGVVQPGRSLRLSCAASGFTFSSYGMHWVRQAPGKGLEWVAVRWYDESNKYYADSVKGRFTISRDNSKNTLYLQMNSLRAEDTAVYYCARDPFETGTTFDYWGQGTLVTVSS VL: DIQMTQSPSSVSASVGDRVTITCRASQGISSWLAWYQQKPGKAPKLLIYAVSSLESGVPSRFSGSGSGTDFTLTISSLQPEDFATYYCQQALTFGGGTKVEIKR		100%		≤ 0.75 nM		13000 M⁻¹ s⁻¹	0.0627 OD650	
mAb 5.56.1 (antibody, V domains shown, Human hybridoma IgG (XenoMouse); also called x5.56) VH: QVQLVESGGGVVQPGRSLRLSCAASGFTFSSYGMHWVRQAPGKGLEWVAVIWYDGSNKYYADSVKGRFTISRDNSKNTLYLQMNSLRAEDTAVYYCAREDNWNFYFDYWGQGTLVTVSS VL: DIQMTQSPSSLSASVGDRVTITCRASQGISYYLAWYQQKPGKVPKLLIYAASTLQSGVPSRFSGSGSGTDFTLTISSLQPEDVATYYCQKYNSAPFTFGPGTKVDIKR	no binding	100%		≤ 0.052 nM		190000 M⁻¹ s⁻¹	0.0863 OD650	≤ 1e-05 s⁻¹
mAb 3.19.3 (antibody, V domains shown, Human hybridoma IgG (XenoMouse); also called x3.19) VH: QVQLVESGGGVVQPGRSLRLSCAASGFTFTNYGMHWGRQAPGKGLEWVAVISHDGNNKYYVDSVKGRFTISRDNSKNTLYLQMNSLRAEDTAVYYCAREGIDFWSGLNWFDPWGQGTLVTVSS VL: EIVLTQSPGTLSLSPGERATLSCRASQSITGSYLAWYQQKPGQAPRLLICGASSWATGIPDRFSGSGSGTDFTLTISRLEPEDFAVYYCQQYSSSPITFGQGTRLEIKR		100%		≤ 0.111 nM		90000 M⁻¹ s⁻¹	0.0633 OD650	≤ 1e-05 s⁻¹
mAb 5.28.1 (antibody, V domains shown, Human hybridoma IgG (XenoMouse); also called x5.28) VH: EVQLVESGGIVVQPGGSLRLSCAASGFTFDDYTMHWVRQTPGKGLEWVSLISWDGGSTYYADSVKGRFTISRDNSKNSLYLQMNSLRTEDTALYYCAKDIDIAVAGTGFDHWGQGTLVTVSS VL: EIVMTQSPATLSVSPGERATLSCRASQSVTSNLAWYQQKPGQAPRLLIYGALIRATGIPARFSGSGSGTEFTLTISSLQSEDFAVYYCQQYNNWPFTFGPGTKVDIKR	no binding	100%		≤ 0.04 nM		250000 M⁻¹ s⁻¹	0.0821 OD650	≤ 1e-05 s⁻¹
mAb 5.83.1 (antibody, V domains shown, Human hybridoma IgG (XenoMouse); also called x5.83) VH: not shown VL: EIVMTQSPATLSVSPGERATLSCRASQSLISNLAWYQQKPGQAPRLLIFGASTRATGIPARFSGSGSGTEFTLTISSLQSEDFAVYYCHQYNNWWTFGQGTKVEIKR	no binding	100%	no binding	≤ 0.147 nM		68000 M⁻¹ s⁻¹	0.0484 OD650	≤ 1e-05 s⁻¹
mAb 3.31.2 (antibody, V domains shown, Human hybridoma IgG (XenoMouse); also called x3.31) VH: EVQLVESGGGLVQPGGSLRLSCAASGFTFSSYWMSWVRQAPGKGLEWVANIKQDGSDKYYVDSVKGRFTISRDNAKNSLYLRMNSLRAEDTAVFYCARDMGSGWFDYWGQGTLVTVSS VL: EVVMTQSPATLSVSPGERATLSCRASQSVGSNLAWYQQKPGQAPRLLIYGASTRATGIPARFSGSGSGTEFTLTISSLQSEDFAVYCCQQYNHWWTFGQGTKVEIKR	no binding			≤ 0.051 nM		190000 M⁻¹ s⁻¹	0.0516 OD650	≤ 1e-05 s⁻¹
mAb 5.54.1 (antibody, V domains shown, Human hybridoma IgG (XenoMouse); also called x5.54) VH: not shown VL: EIVMTQSPATLSVSPGERATLSCRASQSLISNLAWYQQKPGQAPRLLIFGASTRATGIPARFSGSGSGTEFTLTISSLQSEDFAIYYCHQYNNWWTFGQGTKVEIKR	no binding	100%	no binding	≤ 0.066 nM		150000 M⁻¹ s⁻¹	0.044 OD650	≤ 1e-05 s⁻¹
mAb 3.3.2 (antibody, V domains shown, Human hybridoma IgG (XenoMouse); also called 3.3.1; x3.3) VH: EVQLVESGGGLVQPGGSLRLSCAVSGFTFSSYWMSWVRQAPGKGLEWVANIKQDGSEKYYVDSVKGRFTISRDNAKNSLYLQMNSLRAEDTAVYYCARDQGIAVAGPFDYWGQGTLVTVSS VL: EIVMTQSPATLSVSPGERATLSCRASQTVSSDLAWYQQKPGQAPRLLIYGASIRATGIPARFSGSGSGTEFTLTISSLQSEDFAVYSCQQYYNWWTFGQGTKVEIKR		100%	no binding	≤ 0.033 nM		300000 M⁻¹ s⁻¹	0.0558 OD650	≤ 1e-05 s⁻¹
mAb 5.101.1 (antibody, V domains shown, Human hybridoma IgG (XenoMouse); also called x5.101) VH: not shown VL: EIVMTQSPATLSVSPGERATLSCRASQSLISNLAWYQQKPGQAPRLLIFGASTRATGIPARFSGSGSGTEFTLTISSLQSEDFAVYYCHQYNNWWTFGQGTKVEIKR	no binding	100%	no binding	0.581 nM	8.7e-05 s⁻¹	150000 M⁻¹ s⁻¹	0.0824 OD650	

Source: US20080267971A1 (published 2008)
